{
  "source": "the supplement of paper PMC9170038",
  "tested_on": "MS2 coat protein",
  "assay": "apparent KD of MS2 coat protein; designed switch direction (-1 OFF switch, 1 ON switch): -1; higher = weaker reporter binding",
  "method_in_brief": "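The reported apparent KD is a per-design median over clusters, from curve fits of normalised cluster fluorescence. Protein titrations used SNAP-549-labelled MS2 coat protein, doubled from 0.7 or 1.5 nM to 3 µM, in Tris-HCl pH 7.5 buffer with KCl, MgCl2, BSA, DTT, tRNA and Tween-20, with no input, 200 uM small-molecule ligand, or an oligonucleotide input. The RNA switches were transcribed on Illumina chips by stalled E. coli RNA polymerase.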",
  "key": {"[1]": {"conditions": "input ligand: microRNA oligo, concentration not stated"}, "[2]": {"conditions": "Eterna round: R95, input ligand: microRNA oligo, concentration not stated"}},
  "data": [
    {"sequence": "UAUAUAUAGUAAGGAUAUGUAAUUAGUUUAUAAACAGAAGGUACUGACAUGAGGAUCACCCAUGUUUUAGUGUGGGCAUGUAGA [JMF's solution 36] (Eterna round: R96, puzzle: Exclusion NG 1)", "values": [
      {"measurement": "apparent KD of MS2 coat protein", "setting": "[1]", "result": 61.3, "unit": "nM"}
    ]},
    {"sequence": "UAUAUAUAGUAAGGAUAUGUAUAUAUUUCAUAAACAGAAGGUACUGACAUGAGGAUCACCCAUGUUUUAGUGUGGGCAUGUAGA [JMF's solution 65] (Eterna round: R96, puzzle: Exclusion NG 1)", "values": [
      {"measurement": "apparent KD of MS2 coat protein", "setting": "[1]", "result": 48, "unit": "nM"}
    ]},
    {"sequence": "UAUAUAUAGUAAGGAUAUGUAUUAAUUUUAUGAACAGAAGGUACUGACAUGAGGAUCACCCAUGUUUUAGUGUGGGCAUGUAGA [JMF's solution 91] (Eterna round: R96, puzzle: Exclusion NG 1)", "values": [
      {"measurement": "apparent KD of MS2 coat protein", "setting": "[1]", "result": 65.5, "unit": "nM"}
    ]},
    {"sequence": "UAUAUAUAGUAAGGAUAUGUAUUAUUUUUAUAAACAGAAGGUACUGACAUGAGGAUCACCCAUGUUUUAGUGUGGGCAUGUAGA [JMF's solution 73] (Eterna round: R96, puzzle: Exclusion NG 1)", "values": [
      {"measurement": "apparent KD of MS2 coat protein", "setting": "[1]", "result": 36.9, "unit": "nM"}
    ]},
    {"sequence": "UAUAUAUAGUAAGGAUAUGUAUUUAAUUUAUAAACAGAAGGUACUGACAUGAGGAUCACCCAUGUUUUAGUGUGGGCAUGUAGA [JMF's solution 13] (Eterna round: R96, puzzle: Exclusion NG 1)", "values": [
      {"measurement": "apparent KD of MS2 coat protein", "setting": "[1]", "result": 80.8, "unit": "nM"}
    ]},
    {"sequence": "UAUCGCAAGCGAAGAUCCCACAUGAGGAUCACCCAUGUGCUCGUCUUAUAAGGUACUGUGACGAAAGUCACGGUACC [Sensor 3, v1 - 91 v15] (Eterna round: R97, puzzle: Sensor, turn-off variant 1)", "values": [
      {"measurement": "apparent KD of MS2 coat protein", "setting": "input ligand: FMN 200 uM", "result": 31.6, "unit": "nM"},
      {"measurement": "apparent KD of MS2 coat protein", "setting": "input ligand: none", "result": 32.2, "unit": "nM"}
    ]},
    {"sequence": "UAUGCCUUUGUGAGGAUAUACUUUGUUUGGUCGUAGUAGAAGGCACAUGAGGAUCACCCAUGUAGAUUUUUGGU [JR_BME4_Sub012] (puzzle: Brourd's mod of Exclusion 4)", "values": [
      {"measurement": "apparent KD of MS2 coat protein", "setting": "[2]", "result": 25.4, "unit": "nM"}
    ]},
    {"sequence": "UAUGGUUAAGUCAGGAUAUGCACGAAGAGAUCAAUGCAGAAGGGACAUGAGGAUCACCCAUGUAAAGUCGUGUU [Ex4 #74] (Eterna round: R97, puzzle: Brourd's mod of Exclusion 4)", "values": [
      {"measurement": "apparent KD of MS2 coat protein", "setting": "input ligand: FMN 200 uM", "result": 55.1, "unit": "nM"},
      {"measurement": "apparent KD of MS2 coat protein", "setting": "input ligand: none", "result": 27.7, "unit": "nM"}
    ]},
    {"sequence": "UAUGGUUAAGUCAGGAUAUGCUCAUAGAAGUCUAUGCAGAAGGGACAUGAGGAUCACCCAUGUAUGGUCGUGUU [Ex4 #65] (Eterna round: R97, puzzle: Brourd's mod of Exclusion 4)", "values": [
      {"measurement": "apparent KD of MS2 coat protein", "setting": "input ligand: FMN 200 uM", "result": 142, "unit": "nM"},
      {"measurement": "apparent KD of MS2 coat protein", "setting": "input ligand: none", "result": 70.9, "unit": "nM"}
    ]},
    {"sequence": "UAUGGUUAAGUCAGGAUAUGCUCAUAGAAGUCUGUGCAGAAGGGACAUGAGGAUCACCCAUGUAUGGUAGUGUU [Ex4 #61] (Eterna round: R97, puzzle: Brourd's mod of Exclusion 4)", "values": [
      {"measurement": "apparent KD of MS2 coat protein", "setting": "input ligand: FMN 200 uM", "result": 293, "unit": "nM"},
      {"measurement": "apparent KD of MS2 coat protein", "setting": "input ligand: none", "result": 460, "unit": "nM"}
    ]},
    {"sequence": "UAUGUCUCAGGAGGAUAUCUCCCGGUUGCCGUUAGAGAAGGCUUGAAACAUGAGGAUCACCCAUGUAAAUGGCCCGUCCUCCAA [Atsodibian] (Eterna round: R96, puzzle: Exclusion NG 1)", "values": [
      {"measurement": "apparent KD of MS2 coat protein", "setting": "input ligand: FMN 200 uM", "result": 15.4, "unit": "nM"},
      {"measurement": "apparent KD of MS2 coat protein", "setting": "[1]", "result": 9.77, "unit": "nM"},
      {"measurement": "apparent KD of MS2 coat protein", "setting": "input ligand: none", "result": 14.7, "unit": "nM"}
    ]},
    {"sequence": "UAUGUUUUAGGAUAUUGUACUGCUGACAUGAGGAUCACCCAUGUAUGCUAACUCGGCCGUCGAGAAGGAGAAUAUG [BotMod 30 - Jieux - Exclusion 5] (Eterna round: R97, puzzle: Exclusion 5)", "values": [
      {"measurement": "apparent KD of MS2 coat protein", "setting": "input ligand: FMN 200 uM", "result": 43.6, "unit": "nM"},
      {"measurement": "apparent KD of MS2 coat protein", "setting": "input ligand: none", "result": 63.8, "unit": "nM"}
    ]},
    {"sequence": "UAUUAAACAAGCAGAUCCCACAUGAGGAUCACCCAUGUGCUCGUCUUAUAAGGUACUGUGACGAAAGUCACGGUACC [Sensor 3, v1 - 91 v11] (Eterna round: R97, puzzle: Sensor, turn-off variant 1)", "values": [
      {"measurement": "apparent KD of MS2 coat protein", "setting": "input ligand: FMN 200 uM", "result": 56.7, "unit": "nM"},
      {"measurement": "apparent KD of MS2 coat protein", "setting": "input ligand: none", "result": 62.1, "unit": "nM"}
    ]},
    {"sequence": "UAUUAACAAGCAAGAUCCCACAUGAGGAUCACCCAUGUGCUCGUCUUGUAAGGUACUGUGACGAAAGUCACGGUACC [Sensor 3, v1 - 84] (puzzle: Sensor v3, turn-off variant 1)", "values": [
      {"measurement": "apparent KD of MS2 coat protein", "setting": "Eterna round: R95, input ligand: FMN 200 uM", "result": 13.9, "unit": "nM"},
      {"measurement": "apparent KD of MS2 coat protein", "setting": "[2]", "result": 41, "unit": "nM"},
      {"measurement": "apparent KD of MS2 coat protein", "setting": "Eterna round: R95, input ligand: none", "result": 13.4, "unit": "nM"}
    ]}
  ]
}
